Here are results for 84 variants from the RNAGym collection of RNA variant scans (doi:10.1021/acssynbio.7b00057).

Sequences and labels used below:
B1: Pistol ribozyme (parent)
chain: GGGUCGUUGUUCCAUAAUCGCGUGGAUAUGGCACGCAAGUUUCUACCGGGCACCGUAAAUGUCCGACUGGAGCCGUUCGGGCGGCUAUAAACAGACCUCAGGCCCGAAGCGUGGCGGCACCUGCCGCCGGUGGUAAAAAAGAUCGGAAGAGCACACGUCU

The variants in the series derive from B1. Description: aptazyme ON/OFF ratio, guanine; higher = stronger switching; co-transcriptional cleavage with and without guanine.
Regarding U7G U8A G9C U11C C13A, the “aptazyme ON/OFF ratio” value stood at 1.06.
The value for U7G U8A G9C U11C C13U was 1.05; that for U7G U8A G9U U10C U11G C12A C13U was 1.11.
As to U7G U8A G9U U10C U11G C12A C13G, the “aptazyme ON/OFF ratio” value stood at 1.05.
Then U7G U8A G9U U10C U11G C12A C13A, with 1.08; and U7G U8A G9C U11C, with 1.05; and U7G U8A G9C U11A, with 1.14.
For the variant U7G U8A G9C U11G, the “aptazyme ON/OFF ratio” value amounted to 1.04.
As for U7G U8A G9U U10A C12G C13G, the “aptazyme ON/OFF ratio” value is 1.07.
Then U7G U8A G9U U10A C12G C13U, with 1.04; and U7G U8A G9U U10A C12G C13A, with 1.05.
Regarding U7G U8A G9C U10C U11G C12U C13U, the “aptazyme ON/OFF ratio” value was found to be 1.04.
Then U7G U8A G9C U10C U11G C12U C13G, with 1.03.
Then U7G U8A G9C U10C U11G C12U C13A, with 1.05; and U7G U8A G9C U10G U11C C12U C13G, with 1.03.
Turning to U7G U8A G9C U10G U11C C12U C13U, the “aptazyme ON/OFF ratio” value was determined as 1.04.
Then U7G U8A G9C U10G U11C C12U C13A, with 1.05.
Then U7G U8A G9C U10G U11C C12A C13U, with 1.05; and U7G U8A G9C U10G U11C C12A C13G, with 1.02; and U7G U8A G9C U10G U11C C12A C13A, with 1.07.
Regarding U7G U8A G9U U10A U11A C13G, the “aptazyme ON/OFF ratio” value was 1.02.
Then U7G U8A G9U U10A U11A C13U, with 1.07; and U7G U8A G9U U10A U11A C13A, with 1.13.
The value for U7G U8A G9C U10C U11G C13A was 1.04; that for U7G U8A G9C U10C U11G C13G was 1.03.
The value for U7G U8A G9C U10C U11G C13U was 1.03; that for U7G U8A G9U C12A C13G was 1.05.
Take U7G U8A G9U C12A C13A: the “aptazyme ON/OFF ratio” value amounted to 1.1.
For U7G U8A G9U C12A C13U, the “aptazyme ON/OFF ratio” value turned out to be 1.1.
Then U7G U8A G9U U10G C12U C13G, with 1.03; and U7G U8A G9U U10G C12U C13U, with 1.13; and U7G U8A G9U U10G C12U C13A, with 1.05.
Regarding U7G U8A G9U U10G C12G, the “aptazyme ON/OFF ratio” value stood at 1.07.
The value for U7G U8A G9U U10G C12A was 1.09.
Then U7G U8A G9U U10G C12U, with 1.13; and U7G U8A G9U U10C U11G C12U C13A, with 1.09.
Then U7G U8A G9U U10C U11G C12U C13U, with 1.19.
Regarding U7G U8A G9U U10C U11G C12U C13G, the “aptazyme ON/OFF ratio” value came out at 1.07.
Take U7G U8A G9C U10C U11G C12A C13U: the “aptazyme ON/OFF ratio” value came to 1.01.
Then U7G U8A G9C U10C U11G C12A C13A, with 1.02; and U7G U8A G9C U10C U11G C12A C13G, with 1; and U7G U8A G9U U10A U11G C12G C13A, with 1.13.
Then U7G U8A G9U U10A U11G C12G C13G, with 1.15; and U7G U8A G9U U10A U11G C12G C13U, with 1.08.
Take U7G U8A G9C U10G U11A C12G: the “aptazyme ON/OFF ratio” value came out at 1.06.
The value for U7G U8A G9C U10G U11A C12A was 1; that for U7G U8A G9C U10G U11A C12U was 1.02.
Then U7G U8A G9U U10C C12U C13A, with 1.12; and U7G U8A G9U U10C C12U C13U, with 1.03.
For U7G U8A G9U U10C C12U C13G, the “aptazyme ON/OFF ratio” value was 1.04.
The value for U7G U8A G9C U11G C12U C13G was 1.07; that for U7G U8A G9C U11G C12U C13U was 1.19; that for U7G U8A G9C U11G C12U C13A was 1.05.
The value for U7G U8A G9U U10A U11C C12G was 1.09; that for U7G U8A G9U U10A U11C C12A was 1.07; that for U7G U8A G9U U10A U11C C12U was 1.03.
Then U7G U8A G9U U10A C12G, with 1.06; and U7G U8A G9U U10A C12A, with 1.05; and U7G U8A G9U U10A C12U, with 1.03.
Consider U7G U8A G9U U10A U11G C12U C13G, for which the “aptazyme ON/OFF ratio” value is 1.08.
Turning to U7G U8A G9U U10A U11G C12U C13U, the “aptazyme ON/OFF ratio” value was 1.02.
The value for U7G U8A G9U U10A U11G C12U C13A was 1.07; that for U7G U8A G9C U10C U11C C12G was 1.03.
As to U7G U8A G9C U10C U11C C12U, the “aptazyme ON/OFF ratio” value stood at 1.03.
Then U7G U8A G9C U10G C12U, with 1.03; and U7G U8A G9C U10G C12G, with 1.06; and U7G U8A G9C U10G C12A, with 1.02.
As to U7G U8A G9C U10G U11A C12U C13U, the “aptazyme ON/OFF ratio” value is 1.03.
The value for U7G U8A G9C U10G U11A C12U C13A was 1.03.
Then U7G U8A G9C U10G U11A C12U C13G, with 1.06; and U7G U8A G9U U10C U11G C12G C13U, with 1.02; and U7G U8A G9U U10C U11G C12G C13A, with 1.07.
Turning to U7G U8A G9U U10C U11G C12G C13G, the “aptazyme ON/OFF ratio” value came to 1.05.
Then U7G U8A G9U U10A C12A C13U, with 1.06; and U7G U8A G9U U10A C12A C13G, with 1.06.
The value for U7G U8A G9U U10A C12A C13A was 1.04; that for U7G U8A G9C U10C U11C C13G was 1.01; that for U7G U8A G9C U10C U11C C13A was 1.03.
The value for U7G U8A G9C U10C U11C C13U was 1.03; that for U7G U8A G9U U10A C12U C13A was 1.07.
U7G U8A G9U U10A C12U C13G: the “aptazyme ON/OFF ratio” value was determined as 1.06.
The value for U7G U8A G9U U10A C12U C13U was 1.07.
Then U7G U8A G9U U10A, with 1.46; and U7G U8A G9U U10G, with 1.51.
